# Experimental data reported in PMC3616968, “Post-Transcriptional Regulation of the Trypanosome Heat Shock Response by a Zinc Finger Protein”.
# T1: ZC3H11-119 (Trypanosoma brucei, UniProt Q57W26 1-119)
# T1 sequence: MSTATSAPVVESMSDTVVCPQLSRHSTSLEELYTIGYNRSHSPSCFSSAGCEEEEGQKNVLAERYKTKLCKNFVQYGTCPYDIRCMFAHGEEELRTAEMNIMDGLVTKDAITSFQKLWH
# Biological target: T1, ZC3H11-119
# Experiment: EMSA; limiting probe titration; no binding; 20 mM Tris-HCl pH 8.0, 50 mM NaCl, 10 uM ZnCl2, 0.01% IGEPAL CA-630, 0.1 mg/ml tRNA, 10 ug/ml heparin (legends: 5 ug/ml or 10 mg/ml), room temperature 30 min; 100 pmol protein, 1 pmol RNA
# Details: protein: recombinant; tags: His10 (called His-tagged)
binder,measurement,value
UUUUUUUUUUUUUUUUUUUUUUU (ssRNA) [U23],binding result,no binding
